This note sets out measurements from patent US20230340140A1 (INNATE PHARMA, published 2023).

For assay [1], the target named is T1, Human C5aR (C5aR1) (human, UniProt P21730 1-350).
T1 construct: Native receptor on human neutrophils/granulocytes (blood of patients or healthy volunteers); also called C5a receptor
T1 sequence: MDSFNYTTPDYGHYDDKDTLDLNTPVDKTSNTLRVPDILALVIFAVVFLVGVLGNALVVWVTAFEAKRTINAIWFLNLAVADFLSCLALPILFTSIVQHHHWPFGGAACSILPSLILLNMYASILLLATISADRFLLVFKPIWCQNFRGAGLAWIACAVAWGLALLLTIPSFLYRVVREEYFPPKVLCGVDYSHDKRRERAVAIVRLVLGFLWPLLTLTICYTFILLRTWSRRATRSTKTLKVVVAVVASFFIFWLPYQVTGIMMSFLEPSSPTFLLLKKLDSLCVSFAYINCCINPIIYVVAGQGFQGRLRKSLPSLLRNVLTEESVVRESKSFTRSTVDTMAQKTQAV
Put plainly: FACS titration on human neutrophils in vitro; FACS titration on human neutrophils in vitro, given in nM.

Assay [2] addresses T1, Human C5aR (C5aR1). Put plainly: EC50 of C5aR saturation in the PD part of the PKPD model, derived from PK/receptor saturation data of the phase I trial; PD parameter of the PKPD model, from phase I PK/receptor saturation data; not in vitro. An excerpt: A PKPD model was built in Phoenix 64 WinNonLin version 8.1.0.3530, to predict avdoralimab serum concentrations in blood post s.c. administration, as well as C5aR saturation. Pharmacokinetics of therapeutic mAbs are usually modelled using a two-compartment model (Deng et al. 2011 MAbs 3(1): 61-66). Based on the PK results described in Example 1, avdoralimab is expected to display PK properties similar to other therapeutic antibodies in humans, except for compound-specific target-mediated drug disposition (TMDD). This TMDD effect can be modelled by an additional non-linear elimination added to the model (Wang et al. 2016 Biopharm. Drug Dispos. 37: 51-65). […] Absorption rate (Ka) and bioavailability (Ba) for s.c. administration were estimated based on PK results for Example 1. EC₅₀ in the PD part of PKPD model is derived from PK/RSA data observed in phase I clinical trial, and is similar to EC₅₀ binding to human neutrophils in vitro=0.34 nM=51 ng/mL in FACS titration assays.

The target of assay [3] is T1, Human C5aR (C5aR1). Briefly: cell-based or functional assay.

B1: Avdoralimab (antibody, human IgG1, kappa, V domains shown)
VH: EVQLVESGGGLVQPGGSLRLSCAASGFTFSSYVMHWVRQATGKGLEWVSAIDTGGGTYYADSVKGRFTISRENAKNSLYLQMNSLRAGDTAVYYCARDYYYYASGSYYKAFDIWGQGTMVTVSS
VL: EIVLTQSPGTLSLSPGERATLSCRASQSVSSRYLAWYQQKPGQAPRLLIYGASSRATGIPDRFSGSGSGTDFTLTISRLEPEDFAVYYCQQYGSPLTFGQGTKLEIKR
notes: also called IPH5401
What is called EC50 is the concentration needed to bring the measured effect to its halfway point. A higher EC50 goes with a less potent agent. Take B1: the values for the EC50 in assay [1] and in assay [2] were 340 pM and 0.05 µg/mL, respectively. Further, the “EC50 for inhibition of C5a-induced CD11b expression on neutrophils in human whole blood (flow cytometry, MedFI, normalized)” value in assay [3] was 0.34 µg/mL.
